Laboratory results as given in patent US20050106100.
Where “and” joins values, the source holds several entries; their conditions need not be identical. Equal values may be shown once.

B1: human MMP-9 (protein)
chain: MRTPRCGVPDLGRFQTFEGDLKWHHHNITYWIQNYSEDLPRAVIDDAFARAFALWSAVTPLTFTRVYSRDADIVIQFGVAEHGDGYPFDGKDGLLAHAFPPGPGIQGDAHFDDDELWSLGKGVVVPTRFGNADGAACHFPFIFEGRSYSACTTDGRSDGLPWCSTTANYDTDDRFGFCPSERLYTQDGNADGKPCQFPFIFQGQSYSACTTDGRSDGYRWCATTANYDRDKLFGFCPTRADSTVMGGNSAGELCVFPFTFLGKEYSTCTSEGRGDGRLWCATTSNFDSDKKWGFCPDQGYSLFLVAAHEFGHALGLDHSSVPEALMYPMYRFTEGPPLHKDDVNGIRHLYGPRPEPEPRPPTTTTPQPTAPPTVCPTGPPTVHPSERPTAGPTGPPSAGPTGPPTAGPSTATTVPLSPVDDACNVNIFDAIAEIGNQLYLFKDGKYWRFSEGRGSRPQGPFLIADKWPALPRKLDSVFEERLSKKLFFFSGRQVWVYTGASVLGPRRLDKLGLGADVAQVTGALRSGRGKMLLFSGRRLWRFDVKAQMVDPRSASEVDRMFPGVPLDTHDVFQYREKAYFCQDRFYWRVSSRSELNQVDQVGYVTYDILQCPED
B2: MMP-2 (protein)
chain: APSPIIKFPGDVAPKTDKELAVQYLNTFYGCPKESCNLFVLKDTLKKMQKFFGLPQTGDLDQNTIETMRKPRCGNPDVANYNFFPRKPKWDKNQITYRIIGYTPDLDPETVDDAFARAFQVWSDVTPLRFSRIHDGEADIMINFGRWEHGDGYPFDGKDGLLAHAFAPGTGVGGDSHFDDDELWTLGEGQVVRVKYGNADGEYCKFPFLFNGKEYNSCTDTGRSDGFLWCSTTYNFEKDGKYGFCPHEALFTMGGNAEGQPCKFPFRFQGTSYDSCTTEGRTDGYRWCGTTEDYDRDKKYGFCPETAMSTVGGNSEGAPCVFPFTFLGNKYESCTSAGRSDGKMWCATTANYDDDRKWGFCPDQGYSLFLVAAHEFGHAMGLEHSQDPGALMAPIYTYTKNFRLSQDDIKGIQELYGASPDIDLGTGPTPTLGPVTPEICKQDIVFDGIAQIRGEIFFFKDRFIWRTVTPRDKPMGPLLVATFWPELPEKIDAVYEAPQEEKAVFFAGNEYWIYSASTLERGYPKPLTSLGLPPDVQRVDAAFNWSKNKKTYIFAGDKFWRYNEVKKKMDPGFPKLIADAWNAIPDNLDAVVDLQGGGHSYFFKGAYYLKLENQSLKSVKFGSIKSDWLGC

Tests used:
[1] = target: T1, Ac-PLG˜LHL-Ahxh-Hynic
T1 chain: PLGLHL

[2] = target: T2, Ac-POG˜Hphe-LA-Ahxh-Hynic
T2 chain: PXGXLA

[3] = target: T3, Hynic-Ahx-PLG˜Hphe-OLEE-OH
T3 chain: XPLGXXLEE

[4] = target: T4, Ac-Oic-LG˜LL-Ahxh-Ac[C14] (not fully specified)
T4 chain: XLGLL

[5] = target: T5, Ac-PL-NLys˜LL-Ambh-Ac[C14] (not fully specified)
T5 chain: PLXLL

[6] = target: T6, Ac-PHG˜Hphe-L-Ahxh-Hynic (not fully specified)
T6 chain: PHGXL

[7] = target: T7, Ac-PLG˜LL-Ahxh-Ac[C14] (not fully specified)
T7 chain: PLGLL

[8] = target: T8, Ac-Tic-Cit-G˜Hphe-SA-Ahxh-Hynic
T8 chain: XXGXSA

[9] = target: T9, Ac-P-Cit-Cit-LTA-Ahxh-Hynic
T9 chain: PXXLTA

[10] = target: T10, Ac-PLG˜Hphe-YLR-Ahxh-Hynic
T10 chain: PLGXYLR

[11] = target: T11, Ac-PLG˜LRA-Ahxh-Hynic (not fully specified)
T11 chain: PLGLRA

[12] = target: T12, Ac-PLG˜Hphe-OLA-Ahxh-Hynic
T12 chain: PLGXXLA

[13] = target: T13, Ac-POG˜Hphe-LQ-Ahxh-Hynic
T13 chain: PXGXLQ

[14] = target: T14, Ac-LRY˜Cha-TA-Ahxh-Hynic (not fully specified)
T14 chain: LRYXTA

[15] = target: T15, Piv-PLG˜LYT-Ahxh-Hynic
T15 chain: PLGLYT

[16] = target: T16, Ac-P-Cha-G˜Hphe-Cit-L-Ahxh-Ac[C14] (not fully specified)
T16 chain: PXGXXL

[17] = target: T17, Ac-P-DArg-R˜LTA-Ahxh-Hynic (not fully specified)
T17 chain: PRRLTA

[18] = target: T18, Ac-PLG˜Hphe-KL-Ahxh-Ac[C14] (not fully specified)
T18 chain: PLGXKL

[19] = target: T19, Ac-PLG˜Hphe-R-Ahxh-Ac[C14] (not fully specified)
T19 chain: PLGXR

[20] = target: T20, Ac-VRW˜LLA-Ahxh-Hynic
T20 chain: VRWLLA

[21] = target: T21, NLys-NLys-PLG˜Hphe-YL-Ahxh-Hynic
T21 chain: XXPLGXYL

[22] = target: T22, Ac-NGlu-PLG˜Hphe-YL-Ambh-Hynic (not fully specified)
T22 chain: XPLGXYL

[23] = target: T23, Ac-POG˜Hphe-L-Hynic
T23 chain: PXGXL

[24] = target: T24, Ac-PLG˜LYQ-Ahxh-Ac[C14] (not fully specified)
T24 chain: PLGLYQ

[25] = target: T25, Ac-PRG˜Hphe-Dab-A-Ahxh-Hynic
T25 chain: PRGXXA

[26] = target: T26, Ac-P-Cit-G˜Hphe-L-Ahxh-Hynic (not fully specified)
T26 chain: PXGXL

[27] = target: T27, Ac-PL-NLys˜Hphe-L-Ahxh-Ac[C14] (not fully specified)
T27 chain: PLXXL

[28] = target: T28, Ac-P-Cha-G˜LL-Ahxh-Ac[C14] (not fully specified)
T28 chain: PXGLL

[29] = target: T29, Ac-P-Cit-G˜Abu-LA-Ahxh-Hynic (not fully specified)
T29 chain: PXGXLA

Protein	Kcat/Km [1] [M⁻¹ s⁻¹]	Kcat/Km [2] [M⁻¹ s⁻¹]	Kcat/Km [3]	Kcat/Km [4] [M⁻¹ s⁻¹]	Kcat/Km [5] [M⁻¹ s⁻¹]	Kcat/Km [6] [M⁻¹ s⁻¹]	Kcat/Km [7] [M⁻¹ s⁻¹]	Kcat/Km [8] [M⁻¹ s⁻¹]	Kcat/Km [9] [M⁻¹ s⁻¹]	Kcat/Km [10] [M⁻¹ s⁻¹]	Kcat/Km [11] [M⁻¹ s⁻¹]	Kcat/Km [12] [M⁻¹ s⁻¹]	Kcat/Km [13] [M⁻¹ s⁻¹]	Kcat/Km [14] [M⁻¹ s⁻¹]	Kcat/Km [15] [M⁻¹ s⁻¹]	Kcat/Km [16] [M⁻¹ s⁻¹]	Kcat/Km [17] [M⁻¹ s⁻¹]	Kcat/Km [18] [M⁻¹ s⁻¹]	Kcat/Km [19] [M⁻¹ s⁻¹]	Kcat/Km [20] [M⁻¹ s⁻¹]	further results
B1	156000	> 500000	2980 M⁻¹ s⁻¹ and 1670 M⁻¹ s⁻¹	0	88000	4430	134000	1880	29300	243000	> 500000	14100	84800	811	281000	> 500000	0	120000	> 500000	72200	Kcat/Km [21]: 33800 M⁻¹ s⁻¹; Kcat/Km [22]: > 100000 M⁻¹ s⁻¹; Kcat/Km [23]: 4450 M⁻¹ s⁻¹; Kcat/Km [24]: 658000 M⁻¹ s⁻¹; Kcat/Km [25]: 474000 M⁻¹ s⁻¹; Kcat/Km [26]: 33300 M⁻¹ s⁻¹; Kcat/Km [27]: 289000 M⁻¹ s⁻¹; Kcat/Km [28]: 180000 M⁻¹ s⁻¹; Kcat/Km [29]: 20600 M⁻¹ s⁻¹
B2	73700	> 500000	83900 M⁻¹ s⁻¹ and 42500 M⁻¹ s⁻¹	0	68600	22100	148000	3100	27300	364000	> 500000	29500	> 250000	0	569000	22600	6880	103000	> 500000	43000	Kcat/Km [21]: 26300 M⁻¹ s⁻¹; Kcat/Km [23]: 63700 M⁻¹ s⁻¹; Kcat/Km [24]: 439000 M⁻¹ s⁻¹; Kcat/Km [25]: 591000 M⁻¹ s⁻¹; Kcat/Km [26]: 161000 M⁻¹ s⁻¹; Kcat/Km [27]: 465000 M⁻¹ s⁻¹; Kcat/Km [28]: 24700 M⁻¹ s⁻¹; Kcat/Km [29]: 17600 M⁻¹ s⁻¹
